Consider 5 molecules from patent publication US20090203041A1, “BMP4 INHIBITORS” (priority 2006, published 2009).

Assay [1] has as its target T1, BMP4 (Homo sapiens, UniProt P12644).
T1 sequence (P12644 293-408): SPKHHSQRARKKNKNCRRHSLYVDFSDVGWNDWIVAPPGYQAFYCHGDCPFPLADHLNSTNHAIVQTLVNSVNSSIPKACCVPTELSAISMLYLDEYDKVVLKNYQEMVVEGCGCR
Description: BMP4-induced C2C12 cell differentiation assay, peptide preincubated with BMP4. Format: cell-based. The settings on record: peptide 5 μm preincubated with BMP4 100 ng/mL; C2C12 cells, ALP activity. On the procedure: (§1) To test whether exogenous expression of Gremlin can inhibit the activity of exogenously expressed BMP4, the activity of BMP4 secreted into the CM was measured by its effect on mouse myoblast C2C12 cell differentiation into osteoblasts. C2C12 cells were grown in 96-well plate until 90% confluence. Agents (100 ng/ml BMP4 or equivalent amounts of concentrated conditioned medium) were then added into the culture medium (Dulbecco's modified Eagle's medium with 5% fetal bovine serum) and the cells were cultured for 3 days. The cells were then lysed with 0.1% Triton X-100, and the alkaline phosphatase (ALP) activity in the cell lysate was quantified by adding substrate p-nitrophenyl phosphate and measuring absorbance at A405. Triplicate measurements were preformed for every sample. Conditioned media from cells transfected with control, Myc-BMP4, GRE-HA, or Myc-BMP4 and GRE-HA were assayed for BMP4 activity.
The function of the 30 amino acid Gremlin motif in mediating interaction between Gremlin and BMP4 and BMP4 inhibitor activity was assayed by the BMP4-induced C2C12 cell differentiation assay. A linear peptide corresponding to the mapped amino acid sequence (145-174) was synthesized by Genscript (Scotch Plains, N.J.).

The target in a further assay is T2, Myc-BMP4 (Mus musculus, UniProt P21275, INS296EQKLISEEDL).
T2 construct: expressed in transfected cells; host or cells: COS-1 cells
T2 sequence (P21275 with tags, fused parts or gaps limits assumed): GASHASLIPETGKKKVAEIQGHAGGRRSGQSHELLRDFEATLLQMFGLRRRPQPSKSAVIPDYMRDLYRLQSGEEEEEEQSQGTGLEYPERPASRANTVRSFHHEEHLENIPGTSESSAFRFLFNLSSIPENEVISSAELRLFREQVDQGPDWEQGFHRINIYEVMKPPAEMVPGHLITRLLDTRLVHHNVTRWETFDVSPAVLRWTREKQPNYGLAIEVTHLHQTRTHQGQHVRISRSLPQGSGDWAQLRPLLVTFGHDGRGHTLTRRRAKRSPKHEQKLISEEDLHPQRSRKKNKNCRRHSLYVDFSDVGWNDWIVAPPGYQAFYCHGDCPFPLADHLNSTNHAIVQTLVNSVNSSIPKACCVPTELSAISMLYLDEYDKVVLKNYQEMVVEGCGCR
Description: Co-immunoprecipitation of Myc-BMP4 with HA-tagged Gremlin proteins co-expressed in COS-1 cells (anti-HA IP, anti-Myc Western blot). The format is binding. The following applies: co-transfected COS-1 cells. On the procedure:
(§2) To test whether exogenous BMP4 and Gremlin physically interact intracellularly, Myc-BMP4 and GRE-HA were co-transfected into COS-1 cells using Lipofectamine Plus (Invitrogen). Transfected cells were first cultured in medium containing 10% fetal calf serum for 20 hours and then cultured in serum-free conditioned medium (CM) for an additional 48 hours, and experiments were repeated at least three times.
To determine the specificity of BMP4-Gremlin binding and the molecular motif of Gremlin that is responsible for the intermolecular interaction, two truncated Gremlin molecules, GRE-DAN-HA and GRE-NF-HA, were generated with truncation of the NH2-terminal fragment (NF) or the carboxyl-terminal DAN domain (DAN), respectively, as diagramed in FIG. 6A (amino acid positions are in reference to SEQ ID NO:4). The two truncated Gremlin molecules were co-transfected with Myc-BMP4 into COS-1 cells, and immunoprecipitation was performed with anti-HA antibodies.
Partial cDNA of mouse Mucin-2, which encodes a Mucin-2 protein fragment of 114 amino acids on the carboxyl terminus (PQNQ . . . LGRK, GenBank™ accession number XP—620590) was generated by high fidelity RT-PCR (Pfu, Stratagene) and verified by DNA sequencing. An HA epitope was also added to the carboxyl terminus of Mucin-2 by inverted PCR. A variety of Gremlin-Mucin-2 chimeric cDNA constructs were created by inverted PCR in combination with restricted digestion and ligation of PCR products. The Gremlin-Mucin-2 chimeras generated are as diagrammed in FIG. 7B. These HA-epitope tagged Gremline-Mucin-2 chimera proteins were co-expressed with Myc-BMP in COS-1 cells by transient transfection. The BMP4 binding activities and inhibitory activities were evaluated by immunoprecipitation and BMP4-stimulated C2C12 cell differentiation assay as described in Examples 3 and 4. The results for the Gremlin-Mucin-2 chimeras are seen in FIGS. 8A and 8B.
In general terms: Immunoblotting shows a protein as a band on a membrane.

Assay [2] deals with Myc-tagged mouse BMP4 (Myc-BMP4) (mouse) (UniProt P21275). Description: cell-based or functional assay.
Assay [3] concerns the target T3, BMP4 (Mus musculus, UniProt P21275).
T3 construct: mature but no precursor BMP4 was detected in the concentrated CM; expressed in transfected cells; host or cells: COS-1 cells (conditioned medium applied to C2C12 cells)
T3 sequence (P21275 with tags, fused parts or gaps): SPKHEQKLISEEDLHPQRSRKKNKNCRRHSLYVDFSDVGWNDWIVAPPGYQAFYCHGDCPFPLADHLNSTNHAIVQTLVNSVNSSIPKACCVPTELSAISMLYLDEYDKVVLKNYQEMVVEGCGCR
Description: BMP4-stimulated C2C12 cell differentiation assay (alkaline phosphatase activity) with conditioned medium of transfected COS-1 cells. The format is cell-based. The settings on record: C2C12 ALP activity. As for the experimental part: as §2, §1
CM collected separately from cells transfected with Myc-BMP4 or GRE-HA was mixed and preincubated for 1 hour before adding to C2C12 cells (1). COS-1 cells were transfected separately with Myc-BMP4 or GRE-HA, trypsinized and co-cultured during CM collection (2).

Entries after “also recorded” stand apart in the source; their conditions may differ.

As for “PKKFTTMMVTLNCPELQPPTKKKRVTRVKQ (listed as Homo sapiens) [linear peptide]”, the “inhibition of BMP4 activities” value with BMP4 [1] is given as 56±10%.

B1: GRE-NF-HA: truncated HA-tagged Gremlin with the carboxyl-terminal DAN domain deleted (protein)
chain: KKKGSQGAIPPPDKAQHNDSEQTQSPPQPGSRTRGRGQGRGTAMPGEEVLESSQEALHVTERKYLKRDW
modifications: left off: small tags and cut ends
notes: truncated HA-tagged Gremlin with the carboxyl-terminal DAN domain deleted
With B1, in the assay with Myc-BMP4, the “BMP4 binding (co-immunoprecipitation of Myc-BMP4)” value (from here on “BMP4 binding”) is “completely abolished”.

B2: HA-tagged mouse Gremlin (GRE-HA) (protein, not shown: small tags and cut ends)
chain: KKKGSQGAIPPPDKAQHNDSEQTQSPPQPGSRTRGRGQGRGTAMPGEEVLESSQEALHVTERKYLKRDWCKTQPLKQTIHEEGCNSRTIINRFCYGQCNSFYIPRHIRKEEGSFQSCSFCKPKKFTTMMVTLNCPELQPPTKKKRVTRVKQCRCISIDLD
Consider B2, for which, in assay [2], the inhibition of BMP4 activity (alkaline phosphatase activity, C2C12 cell differentiation assay); CM of Myc-BMP4 cells mixed with an equal amount of CM of GRE-HA cells is 20%; the inhibition of BMP4 activity (alkaline phosphatase activity, C2C12 cell differentiation assay); CM of cells co-transfected with Myc-BMP4 and GRE-HA was determined as 86%; the inhibition of BMP4 activity (alkaline phosphatase activity, C2C12 cell differentiation assay); CM of co-cultured cells transfected separately with Myc-BMP4 or GRE-HA came to 55%.

B3: GRE-HA: HA-epitope tagged mouse Gremlin, full length, expressed by transfection (protein)
chain: KKKGSQGAIPPPDKAQHNDSEQTQSPPQPGSRTRGRGQGRGTAMPGEEVLESSQEALHVTERKYLKRDWCKTQPLKQTIHEEGCNSRTIINRFCYGQCNSFYIPRHIRKEEGSFQSCSFCKPKKFTTMMVTLNCPELQPPTKKKRVTRVKQCRCISIDLD
modifications: left off: small tags and cut ends
As for B3, the “BMP4 binding” value with Myc-BMP4 was “Myc-BMP4 precursor was found in the cell lysate; also recorded: retained its BMP4 binding activity”. In the assay with BMP4 [3] (CM from COS-1 cells transfected separately with Myc-BMP4 or GRE-HA and co-cultured during CM collection), this molecule came in with a BMP4 inhibitory effect of 55±5%. Besides, the BMP4 activity inhibited with BMP4 [3] (CM of Myc-BMP4 transfected cells plus equal amount of CM from GRE-HA transfected cells, mixed and preincubated 1 hour) is 20±9%; in the assay with BMP4 [3] (cells co-transfected with Myc-BMP4 and GRE-HA, p<0.05), 86±4%.

B4: GRE-DAN-HA: truncated HA-tagged Gremlin with the NH2-terminal fragment deleted (protein)
chain: CKTQPLKQTIHEEGCNSRTIINRFCYGQCNSFYIPRHIRKEEGSFQSCSFCKPKKFTTMMVTLNCPELQPPTKKKRVTRVKQCRCISIDLD
modifications: left off: small tags and cut ends
notes: truncated HA-tagged Gremlin with the NH2-terminal fragment deleted
For B4, the “BMP4 binding” value with Myc-BMP4 is reported as “retained its BMP4 binding activity”.
